The values below come from US20150050278A1.

The target of one experiment is nucleolin (UniProt P19338). Nature of the experiment: ELISA (FIG. 11). For orientation: An ELISA detects its analyte on a solid surface through an enzyme-linked reagent.
Experiment [1] has as its target gp140. Description: ELISA on gp140, OD405.
In experiment [2] the target is gp140. Description: ELISA (FIG. 10).

B1: gn1 (designed binder)
chain: APELLGGPSVFLFPPSPKDTLMISRTPEVTCVVVDVSHEDPEVKFNWYVDGVEVHNAKTKPREEQYNSTYSVASLLTVLHQDWLNGKEYKCKVSNKALPAPIEKTISKAKGQPREPQVYTSPPSRDELTKNQVSLRCHVKGFYPSDIAVEWESNGQGAKGSSGSTWGYGMDVWVPVLDSDSSFFLYSKLTVDKSRWQQGNVFSCSVMHEALHNHYTQKSLSLSPGK
The molecule B1 yielded an affinity with nucleolin of 50 nM.

B2: gg37 (designed binder)
chain: APELLGGPSVFLFPPTPKDTLMISRTPEVTCVVVDVSHEDPEVKFNWYVDGVEVHNAKTKPREEQYNSTYGVSSGLTVLHQDWLNGKEYKCKVSNKALPAPIEKTISKAKGQPREPQVYTSPPSRDELTKNQVSLRCHVKGFYPSDIAVEWESNGQGARGGMNWFDPWVPVLDSDGSFFLYGKLTVDKSRWQQGNVFSCSVMHEALHNHYTQKSLSLSPGK
Regarding B2, the EC50 (read off the curve) with gp140 [1] is 80 nM. This molecule displayed an affinity in the experiment with gp140 [2] of 50 nM.

Usually EC50 (read off the curve) stands for the concentration giving half of the maximal effect. A high value points to a need for much substance.
